{
  "source": "paper PMC3140635",
  "about": "(2012)",
  "binders": {"B1": {"name": "Glycophorin A TM domain (SNGpATM) TMD (protein)", "chain": "GERVQLAHHFSEPEITLIIFGVMAGVIGTILLISYGIRRLIKKSPSDVKPLPSPDTDVPLSSVEIENPETSDQ"}},
  "key": {"[1]": {"target": "the molecule itself", "test": "steric trap, lysoPC/PC"}, "[2]": {"target": "the molecule itself", "test": "steric trap, PG/PC"}, "[3]": {"target": "the molecule itself", "test": "steric trap, PG/PC", "remark": "listed apart in the source"}, "[4]": {"target": "the molecule itself", "test": "steric trap, DM micelles"}, "[5]": {"target": "the molecule itself", "test": "steric trap, PC bilayers, L/P 1000"}, "[6]": {"target": "the molecule itself", "test": "steric trap, PS/PC"}, "[7]": {"target": "the molecule itself", "test": "steric trap, PE/PC"}, "[8]": {"target": "the molecule itself", "test": "steric trap"}, "[9]": {"target": "the molecule itself", "test": "steric trap, PE/PG/PC"}, "[10]": {"target": "the molecule itself", "test": "steric trap, PC bilayers, L/P 1400-1600, no IMP"}, "[11]": {"target": "the molecule itself", "test": "steric trap, E. coli lipid bilayers, L/P 1500"}, "[12]": {"target": "the molecule itself", "test": "steric trap, PG/PC", "remark": "listed apart in the source"}, "[13]": {"target": "B1", "test": "steric trap, PC bilayers, L/P 1400-1600"}},
  "data": [
    {"binder": "B1", "values": [
      {"measurement": "Kd", "setting": "[1]", "result": 6, "unit": "nM"},
      {"measurement": "Kd", "setting": "[2]", "result": 32, "unit": "nM"},
      {"measurement": "Kd", "setting": "[3]", "result": 14, "unit": "nM"},
      {"measurement": "Kd", "setting": "[4]", "result": 170, "unit": "nM"},
      {"measurement": "Kd", "setting": "[5]", "result": 0.0015, "unit": "nM"},
      {"measurement": "Kd", "setting": "[6]", "result": 25, "unit": "nM"},
      {"measurement": "Kd", "setting": "[7]", "result": 0.00021, "unit": "nM"},
      {"measurement": "Kd", "setting": "[8]", "result": 11, "unit": "nM"},
      {"measurement": "Kd", "setting": "[9]", "result": 5.1, "unit": "nM"},
      {"measurement": "Kd", "setting": "[10]", "result": 0.003, "unit": "nM"},
      {"measurement": "Kd", "setting": "[11]", "result": 10, "unit": "nM"},
      {"measurement": "Kd", "setting": "[12]", "result": 47, "unit": "nM"}
    ]},
    {"binder": "Glycophorin A TM domain (SNGpATM) TMD (protein, E. coli inner membrane proteins at mass ratio 1.0) GERVQLAHHFSEPEITLIIFGVMAGVIGTILLISYGIRRLIKKSPSDVKPLPSPDTDVPLSSVEIENPETSDQ", "values": [
      {"measurement": "Kd", "setting": "[13]", "result": 9.2, "unit": "nM"}
    ]}
  ]
}
